For the assay, the target named is SUFU (UniProt Q9UMX1). The assay is described as follows: co-immunoprecipitation, immunoblot. Particulars: reference: wild-type GLI2, CCL21; sites S149.

The text below walks through data of publication PMC4266991.

Take “GLI2 (from UniProt P10070) GLI2 S149A, CCL21”: the “binding against the reference” value was “stronger”.
